In general, pKa refers to the negative logarithm of the acid dissociation constant.

The target of series [1] is dansyl-Gab2(637-649) peptide (UniProt Q9UQC2). Nature of the series: Stopped-flow kinetics; K D from the rate constants of C1 and C2. The following applies: 298 K in Results, 283 K in Methods (conflict in the article), no added salt (50 mM buffer only), 50 mM acetate at pH 5.0 and 5.5, 50 mM Bis-Tris at pH 6.0 and 6.5, 50 mM Hepes at pH 7.0 and 7.5, 50 mM Tris-HCl at pH 8.

For series [2] the target is unchanged. Nature of the series: Stopped-flow fluorescence (FRET Trp112 to dansyl), pseudo-first-order association kinetics. The following applies: 298 K in Results, 283 K in Methods (conflict in the article), no added salt (50 mM buffer only), 50 mM acetate at pH 5.0 and 5.5, 50 mM Bis-Tris at pH 6.0 and 6.5, 50 mM Hepes at pH 7.0 and 7.5, 50 mM Tris-HCl at pH 8.
Series [3] has the same target. Nature of the series: Stopped-flow fluorescence (FRET), displacement kinetics. The following applies: 298 K in Results, 283 K in Methods (conflict in the article), no added salt (50 mM buffer only), 50 mM acetate at pH 5.0 and 5.5, 50 mM Bis-Tris at pH 6.0 and 6.5, 50 mM Hepes at pH 7.0 and 7.5, 50 mM Tris-HCl at pH 8.
Series [4] shares this target. In words: Stopped-flow fluorescence (FRET), pseudo-first-order association kinetics, ionic-strength series. The following applies: pH 8.0, 298 K in Results, 283 K in Methods (conflict in the article).
Another series addresses His169 (UniProt position 169, KSKVTHVMIRC). Nature of the series: kinetics (stopped-flow fluorescence/FRET binding and displacement). The following applies: 283 K according to Methods (stopped-flow binding and displacement) and the Figure S2 legend. Results text states 298 K.; 50 mM buffer, no added salt stated for the pH series; 50 mM acetate (pH 5.0, 5.5), 50 mM Bis-Tris (pH 6.0, 6.5), 50 mM Hepes (pH 7.0, 7.5), 50 mM Tris-HCl (pH 8.0); 2 mM DTT in all; Folded domain, cysteines reduced. The binding reaction with the phosphopeptide was followed, so the pKa is derived from both kon and koff.

SHP2 C-SH2 domain H114A H114A: the K D in series [1] (pH 5.0) came out at 8.5 µM; in series [1] (pH 5.5) it was 3.2 µM; in series [1] (pH 6.0), 2.9 µM; in series [1] (pH 6.5) it was 5.2 µM; in series [1] (pH 7.0), 4.7 µM; in series [1] (pH 7.5) it was 12 µM. Besides, the K D in series [1] (pH 8.0) was 12 µM. Also, the k on amounted to 1.08e+07 M⁻¹ s⁻¹ in series [2] (pH 5.0); 3.2e+07 M⁻¹ s⁻¹ in series [2] (pH 5.5); 5.2e+07 M⁻¹ s⁻¹ in series [2] (pH 6.0); 2.4e+07 M⁻¹ s⁻¹ in series [2] (pH 6.5); 3.1e+07 M⁻¹ s⁻¹ in series [2] (pH 7.0); 2.1e+07 M⁻¹ s⁻¹ in series [2] (pH 7.5). In addition, in series [2] (pH 8.0), the k on amounted to 2.3e+07 M⁻¹ s⁻¹. Besides, the k off in series [3] (pH 5.0) was found to be 92 s⁻¹; in series [3] (pH 5.5) it was 102 s⁻¹; in series [3] (pH 6.0), 148 s⁻¹; in series [3] (pH 6.5), 125 s⁻¹; in series [3] (pH 7.0), 144 s⁻¹; in series [3] (pH 7.5), 253 s⁻¹. Further, in series [3] (pH 8.0), the k off stood at 263 s⁻¹.

As for SHP2 C-SH2 domain H116A H116A, the K D was 6.6 µM in series [1] (pH 5.0); 3.4 µM in series [1] (pH 5.5); 5.6 µM in series [1] (pH 6.0); 6.4 µM in series [1] (pH 6.5); 11 µM in series [1] (pH 7.0); 20 µM in series [1] (pH 7.5). In addition, the K D in series [1] (pH 8.0) was found to be 14 µM. Further, the k on in series [2] (pH 5.0) came to 1.6e+07 M⁻¹ s⁻¹; in series [2] (pH 5.5), 2.9e+07 M⁻¹ s⁻¹; in series [2] (pH 6.0) it was 1.9e+07 M⁻¹ s⁻¹; in series [2] (pH 6.5), 2e+07 M⁻¹ s⁻¹; in series [2] (pH 7.0), 1.5e+07 M⁻¹ s⁻¹; in series [2] (pH 7.5) it was 1.1e+07 M⁻¹ s⁻¹. Also, the k on in series [2] (pH 8.0) turned out to be 1.4e+07 M⁻¹ s⁻¹. Also, the k off came out at 103 s⁻¹ in series [3] (pH 5.0); 98 s⁻¹ in series [3] (pH 5.5); 105 s⁻¹ in series [3] (pH 6.0); 130 s⁻¹ in series [3] (pH 6.5); 170 s⁻¹ in series [3] (pH 7.0); 204 s⁻¹ in series [3] (pH 7.5). Also, in series [3] (pH 8.0), the k off came out at 196 s⁻¹.

As for SHP2 C-SH2 domain H143A H143A, the K D in series [1] (pH 5.0) was found to be 14.3 µM; in series [1] (pH 5.5), 4 µM; in series [1] (pH 6.0) it was 7.4 µM; in series [1] (pH 6.5) it was 25 µM; in series [1] (pH 7.0) it was 23 µM; in series [1] (pH 7.5), 17 µM. Moreover, in series [1] (pH 8.0), the K D amounted to 10.8 µM. Moreover, the k on worked out at 1.1e+07 M⁻¹ s⁻¹ in series [2] (pH 5.0); 3.2e+07 M⁻¹ s⁻¹ in series [2] (pH 5.5); 2e+07 M⁻¹ s⁻¹ in series [2] (pH 6.0); 9e+06 M⁻¹ s⁻¹ in series [2] (pH 6.5); 8e+06 M⁻¹ s⁻¹ in series [2] (pH 7.0); 1.3e+07 M⁻¹ s⁻¹ in series [2] (pH 7.5). Moreover, the k on in series [2] (pH 8.0) is 1.4e+07 M⁻¹ s⁻¹. For the same substance, the k off was 154 s⁻¹ in series [3] (pH 5.0); 127 s⁻¹ in series [3] (pH 5.5); 149 s⁻¹ in series [3] (pH 6.0); 226 s⁻¹ in series [3] (pH 6.5); 183 s⁻¹ in series [3] (pH 7.0); 225 s⁻¹ in series [3] (pH 7.5). In series [3] (pH 8.0), the k off worked out at 148 s⁻¹.

On to SHP2 C-SH2 domain H132A H132A, for which the K D in series [1] (pH 5.0) was determined as 3.6 µM; in series [1] (pH 5.5) it was 2.4 µM; in series [1] (pH 6.0), 2 µM; in series [1] (pH 6.5), 10.4 µM; in series [1] (pH 7.0), 8.5 µM; in series [1] (pH 7.5), 12 µM. For the same substance, the K D in series [1] (pH 8.0) came out at 27 µM. In addition, the k on in series [2] (pH 5.0) was 2.2e+07 M⁻¹ s⁻¹; in series [2] (pH 5.5), 2.9e+07 M⁻¹ s⁻¹; in series [2] (pH 6.0) it was 4.5e+07 M⁻¹ s⁻¹; in series [2] (pH 6.5), 1.4e+07 M⁻¹ s⁻¹; in series [2] (pH 7.0), 2e+07 M⁻¹ s⁻¹; in series [2] (pH 7.5) it was 1.8e+07 M⁻¹ s⁻¹. Moreover, the k on in series [2] (pH 8.0) is 1.1e+07 M⁻¹ s⁻¹. The k off in series [3] (pH 5.0) is 80 s⁻¹; in series [3] (pH 5.5), 69 s⁻¹; in series [3] (pH 6.0) it was 91 s⁻¹; in series [3] (pH 6.5), 143 s⁻¹; in series [3] (pH 7.0), 168 s⁻¹; in series [3] (pH 7.5), 219 s⁻¹. Besides, the k off in series [3] (pH 8.0) came out at 287 s⁻¹.

Regarding “SHP2 (PTPN11) C-terminal SH2 domain, wild type”, the K D in series [1] (pH 5.0) worked out at 3.8 µM; in series [1] (pH 5.5) it was 2.8 µM; in series [1] (pH 6.0), 4.7 µM; in series [1] (pH 6.5), 6.9 µM; in series [1] (pH 7.0), 6.8 µM; in series [1] (pH 7.5), 17.2 µM. The K D in series [1] (pH 8.0) amounted to 21.3 µM. For the same substance, the k on came to 2.11e+07 M⁻¹ s⁻¹ in series [2] (pH 5.0); 2.86e+07 M⁻¹ s⁻¹ in series [2] (pH 5.5); 2.41e+07 M⁻¹ s⁻¹ in series [2] (pH 6.0); 2e+07 M⁻¹ s⁻¹ in series [2] (pH 6.5); 2.2e+07 M⁻¹ s⁻¹ in series [2] (pH 7.0); 1.36e+07 M⁻¹ s⁻¹ in series [2] (pH 7.5). Also, the k on in series [2] (pH 8.0) was determined as 9.9e+06 M⁻¹ s⁻¹; in series [4] (highest of the series: 50 mM Tris-HCl + 150 mM NaCl, Tris-HCl 50 mM pH 8.0) it was 6.4e+06 ± 500000 M⁻¹ s⁻¹; in series [4] (lowest of the series: 10 mM Tris-HCl, no NaCl, Tris-HCl 10 mM pH 8.0), 3.14e+07 ± 3.8e+06 M⁻¹ s⁻¹. The k off in series [3] (pH 5.0) turned out to be 80 s⁻¹; in series [3] (pH 5.5), 79 s⁻¹; in series [3] (pH 6.0), 112 s⁻¹; in series [3] (pH 6.5), 141 s⁻¹; in series [3] (pH 7.0), 147 s⁻¹; in series [3] (pH 7.5), 234 s⁻¹. For the same substance, the k off in series [3] (pH 8.0) came out at 210 s⁻¹.

In the case of SHP2 C-SH2 domain H196A H196A, the K D in series [1] (pH 5.0) came out at 5.3 µM; in series [1] (pH 5.5), 2.9 µM; in series [1] (pH 6.0) it was 5.4 µM; in series [1] (pH 6.5), 3.4 µM; in series [1] (pH 7.0), 3.4 µM; in series [1] (pH 7.5) it was 13 µM. Further, the K D in series [1] (pH 8.0) came out at 13 µM. Moreover, the k on in series [2] (pH 5.0) worked out at 2.4e+07 M⁻¹ s⁻¹; in series [2] (pH 5.5), 4e+07 M⁻¹ s⁻¹; in series [2] (pH 6.0) it was 2.1e+07 M⁻¹ s⁻¹; in series [2] (pH 6.5) it was 3.9e+07 M⁻¹ s⁻¹; in series [2] (pH 7.0), 3.7e+07 M⁻¹ s⁻¹; in series [2] (pH 7.5), 1.3e+07 M⁻¹ s⁻¹. The k on in series [2] (pH 8.0) is 1.2e+07 M⁻¹ s⁻¹. For the same substance, the k off was determined as 125 s⁻¹ in series [3] (pH 5.0); 114 s⁻¹ in series [3] (pH 5.5); 116 s⁻¹ in series [3] (pH 6.0); 132 s⁻¹ in series [3] (pH 6.5); 125 s⁻¹ in series [3] (pH 7.0); 172 s⁻¹ in series [3] (pH 7.5). Besides, the k off in series [3] (pH 8.0) stood at 162 s⁻¹.

As to “Tyrosine-protein phosphatase non-receptor type 11 (SHP2), C-terminal SH2 domain (C-SH2) (Homo sapiens (inferred; organism not stated in the article))”, the pKa with His169 came out at 7.1 ± 0.2.

Values taken from PMC8605372.
